Experimental data published in the nanobody polyreactivity screen of Harvey et al. (2022).

assay: yeast display, Sf9 membrane polyspecificity reagent, FACS + sequencing; frameworks hold sequencing errors
Outline: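 Nanobodies came from a synthetic yeast display library in Saccharomyces cerevisiae BJ5465, induced with galactose for 36–48 hours and stained for 1 hour at 4 °C with 10% biotinylated, detergent-solubilized Sf9 membrane reagent. Cells were enriched on streptavidin microbeads and then FACS-sorted, with low and high (top ~1%) gates set on anti-HA fluorescence for expression and streptavidin fluorescence for reagent binding. Each polyreactivity label reflects the gate a clone came from. Genes were amplified by colony PCR, sequenced by MiSeq 2 × 250 and filtered by CDR length.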

Sequence | polyreactivity (PSR sort gate)
QVQLVESGGGLVQAGGSLRLSCAASGYSFSPNAMGWYRQEPGKDRELVAAISSGVSTDYADSVKGRFSISRDNAKNTVYLQMNSLKPEDTAVYYCAADDQYRVTLGYVYWGQGTQVTVSS | low polyreactivity
QVQLVESGGGLVQAGGSLRLSCAASGYTFAGNAMGWYRQAAGKERELVAAISRSGGRTYYADSVKGRFTISRDNAKNTVYLQMNSLNPEDTAVYYCAAYFPRTLFEFGYWGQGTQVTVSS | high polyreactivity
QVQLVESGGGLVQAGGSLRLSCAASGYTFALYAMGWYRQAPGKERELVAAITDSDGSTYADSVKGRFTISRDNAKNTVYLQMNSLKPEDNAVYYCAGRDPHLQGSSYLSYLTMDYWGQGTQVTVSS | low polyreactivity
QVQLVESGGGLVQAGGSLRLSCAASGYTFATKVMGWYRQAPGKERELVATITGSGGSTYYADSVKGRLTISRDNAKNTVYLQMNSLTPEDTAVYNCAARLYGWYYGGYTRYDYWGQGTQVTVSS | high polyreactivity
QVQLVESGGGLVQAGGSLRLSCAASGYTFCVYVMGWYRQAPGKERELVAAISGSTYYADSVKGRFTISRDNAKNTVYLQMNSLKPEDTAVYYCAAESYFFSPRTREKFDYWGQGTQVTVSS | low polyreactivity
QVQLVESGGGLVQAGGSLRLSCAASGYTFDINAMGWYRQAPGKERELVADISANDGSTSYADSVKGRFTISRDNAKNTVYLQMNSLKPEDTAVYYCAADYIWNPTWSVGYGDPGYDYCGQGTQVTVSS | low polyreactivity
QVQLVESGGGLVQAGGSLRLSCAASGYTFDPNAMGWYRQAPGKERELVAAISRIGGSTYYADSVKGRFTISRDNAKNTVYLQMKSLKPEDTAVYYCAVDWYLTGHWADDYWGQGTQVTVSS | low polyreactivity
QVQLVESGGGLVQAGGSLRLSCAASGYTFDTNVMGWYRQEPGKERELVATITGSGGSTYYADSVKGRFTISRDNAKNTVYLEMNSLKPEDTAVYYCAAYCYRYSFHWLKRWPYDWGQGTQVTVSS | high polyreactivity
QVQLVESGGGLVQAGGSLRLSCAASGYTFDYYAMGWYRQAPGKERELVAAIRRGGSTYYADSVKGRFTISRDNAKNTVYLQMNSLKPEDTAVYYCAAVIYRDGTIYDYWGQGTQVTVSS | high polyreactivity
QVQLVESGGGLVQAGGSLRLSCAASGYTFEDNAMGWYRQAPRKESELVAAIDWSGDSTYYADSVKGRFTISRDNAKNTVYLQMNSLKPEDTAVYYCAADYTTWTDMDYWGQGTQVTVSS | low polyreactivity
QVQLVESGGGLVQAGGSLRLSCAASGYTFFFNVMGWYRQAPGKVRELVAAISYSGGSTNYADSVKGRFTISRDNAKNTVYLQMNSLKPEDTAVYYCNARSVSRNGYEDVYWGQGTQVTVSS | low polyreactivity
QVQLVESGGGLVQAGGSLRLSCAASGYTFFYMGWYRQAPGKEREFVAVITYSGGSTYYADSVKGRFTISRDNAKNTVYLQMNSLKPEDTAVYYCAAAVWHYGRPGYLDSGYDYWGQGTQVTVSS | low polyreactivity
QVQLVESGGGLVQAGGSLRLSCAASGYTFFYYAMGWYRQAPGKERELVASISWNGGSTYYADSVKGRFTISRDNGKNTVYLQMNSLKPEDTAVYYCAADSPRPRLTSYGYIGGEYYYWGQGTQVTVSS | low polyreactivity
QVQLVESGGGLVQAGGSLRLSCAASGYTFGHYVMGWYRQAPGKERELVAAISRSGGSTYYADSVKGRFTISRDNAKNTVYLQMNSLKPEDTAVYYCARGRIGGGAPGDKSSLNYYYWGQGTQVTVSS | high polyreactivity
QVQLVESGGGLVQAGGSLRLSCAASGYTFGSYAMGWYRPAPGKERELVAAITPGGSTYYADSVKGRFTISRDNAKNTVYLQMNSLKPEDTAVYYCNRATRYWKAYYWFKTMDYWGQGTQVTVSS | high polyreactivity
QVQLVESGGGLVQAGGSLRLSCAASGYTFGYYALGRYRPAPGKERELVAAISSGGITKYADSVKGRFTISRENAKNTVYLQMNSLKPEDTAVYYCAASWYRYRFIRYDYWGQGTQVTVSS | high polyreactivity
QVQLVESGGGLVQAGGSLRLSCAASGYTFGYYAMGWYRQAPGKERELVAAISYSGGNTYYADSVKGRFTISRDNAKNTVYLQMNSLKPEDTAVYYCNKRYWVRTGKVSSYAYWGQGTQVTVSS | high polyreactivity
QVQLVESGGGLVQAGGSLRLSCAASGYTFKAYAMGWYRQAPGKERELVAAISWSGARTYYADSVKGRFTISRDNAKNTVYLQMNSLKPEDTAVYYCAASNAVYAGRSYRDEFWGQGTQVTVSS | high polyreactivity
QVQLVESGGGLVQAGGSLRLSCAASGYTFKRNDMGWYRQAPGKERELVAAISKSGGSTYYADSVKGRFTISRDNAKNTVYLQMNSLKPEDTAVYYCPGPLPYYGQYDYWGQGTQVTVSS | low polyreactivity
QVQLVESGGGLVQAGGSLRLSCAASGYTFKYNAMGWYRQAPGKERELVAAISSRGDRTYYADSVKGRFTISRDNAKNTVYLQMNSLKPEDTVVYYCNKVARPRSRNDSWGQGTQVTVSS | high polyreactivity
QVQLVESGGGLVQAGGSLRLSCAASGYTFLDYAMGWYRQAPGKERELFAAINSGGSTYYADSVKGRFTISRDNAKNSVYFQMNSLNPEDTAVSYCAREDYVSYRLLYYLFDYWGQGTQVTVSS | low polyreactivity
QVQLVESGGGLVQAGGSLRLSCAASGYTFLVNAMGWYRQAPGKERELVAAISSGGSTYYADSVKGRFTISRDNAKNTVYLQMNSLKPEDTAVYYCAAPTDFLFWEFDYWGQGTQVTVSS | low polyreactivity

Sequence | polyreactivity (PSR sort gate)
QVQLVESGGGLVQAGGSLRLSCAASGYTFNRNAMGWYIQAPGKERELVASITRRGGSTYYADSVKGRFTISRDNAKNTVYLQMNSLKPEDTAVYYCAVESIRTGDYWGQGTQVTVSS | high polyreactivity
QVQLVESGGGLVQAGGSLRLSCAASGYTFNRYAMGWYRQAPGKERELVAAITRGGTTYYADSVKGRFTISRDNAKNTVYLQMNSLKPEDTAVYYCNKFQPSGQYFKMGYWGQGTQVTVSS | high polyreactivity
QVQLVESGGGLVQAGGSLRLSCAASGYTFPIYAMGWYRQAPGKEREVVATISSGGRTNYADSVKGRFTISRDNAKNTVYLQMNSLKPEDTAVYYCNARRLGWHALYLYDYWGQGTQVTVSS | high polyreactivity
QVQLVESGGGLVQAGGSLRLSCAASGYTFPKYAMGWYRQAPGKERELVAAITKRGGRTYYADSVKGRFTISRDNAKNTVYLQMNSLKPEDTAVYYCAVDLDGPEYSQVHYDYWGQGTQVTVSS | high polyreactivity
QVQLVESGGGLVQAGGSLRLSCAASGYTFPLYAMGLYRQAPGKERELVADINIGGASTYYADSVKGRFTISRDNAKNTVYLQMNSLKPEDTAVYYCAKEYYDGYFPTFDYDYWGQGTQVTVSS | low polyreactivity
QVQLVESGGGLVQAGGSLRLSCAASGYTFPLYAMGWYIQAPGKETELVADINIGGASTYYADSVKGRFTISRDNAKNTVYLQMNSLKPEDTAVYYCAKEYYDGYFPTLDYDYWGQGTQVTVSS | low polyreactivity
QVQLVESGGGLVQAGGSLRLSCAASGYTFPPNAMGWYSQAPGKERELVAAISWRGDSTYYADSVKGRFTISRDNAKNTVYLQMISLKPEDTAVYYCAAGYRRGPDIYYYWGQVTQVTVSS | low polyreactivity
QVQLVESGGGLVQAGGSLRLSCAASGYTFPRNAMGWYRQEPGKERELVAAISASGGRTSYADSVKVRFTISRDNAKNTVYLQMNSLKPEDTAVYYCAAPFLRRIGYPRSYDYWGQGTQVTVSS | high polyreactivity
QVQLVESGGGLVQAGGSLRLSCAASGYTFPYYAMGWYIQAPGKERELVAAISRSGGTTYYADSVKGRFTISRDNAKNTVYLQLNSLKPEDTAVYYCAALYGSRSTYHMDDYWGQGTQVTVSS | high polyreactivity
QVQLVESGGGLVQAGGSLRLSCAASGYTFQKYAMGWYRQAPGKERESVAAITRSGTRTYYADSVKGRFTISRDNAKNTVYLQMNSLKPEDTAVYYCAAETYYSIYDYWGQGTQVTVSS | high polyreactivity
QVQLVESGGGLVQAGGSLRLSCAASGYTFQYYTMGWYRQAPGKERELVAAISSSGGRTYYADSVKGRFTISRDNAKNTVYLQMNSLKPEDTAVYYCAATYSYRSDYYSWGQGTQVTVSS | high polyreactivity
QVQLVESGGGLVQAGGSLRLSCAASGYTFRANGMGWYRQAPGKERELVAAITQSVDNTYYADSVKGRFTISRDNAKNTVYLQVNSLKPEDTAVYYCATEYGQTGYPQMGYWGQGTQVTVSS | low polyreactivity
QVQLVESGGGLVQAGGSLRLSCAASGYTFRGYAMGWYRQAPGKEREFVAAINWSDGSTYYADSVKGRFTISRDNAKNTVYLQMNSLKPEDTAVYYCNADQYYRVPDNYWGQGTLVTVSS | low polyreactivity
QVQLVESGGGLVQAGGSLRLSCAASGYTFRGYAMGWYRQAPGKEREFVAAINWSDGSTYYADSVKGRFTISRDNAKNTVYLQMNSLKPEDTAVYYCNADQYYRVPDNYWGQGTQVTVSS | low polyreactivity
QVQLVESGGGLVQAGGSLRLSCAASGYTFRNNAMGWYRQAPGKEREFVAAISRSGARTYYADSVKGRFTISRDNAKNTVYLQMNSLKPEDTAVYYCAARESFEYDSWGQGTQVTVSS | high polyreactivity
QVQLVESGGGLVQAGGSLRLSCAASGYTFRQYTIGWYRPAPGKERELVDAISRSGGSTYYADSVKGRFTISRDNAKNTVFLQMNSLKPEDTAVYYCNAEGYGRTDGFGYDYWGQGTQVTVSS | high polyreactivity
QVQLVESGGGLVQAGGSLRLSCAASGYTFRYYAMGWYRQAPGKERELVAAISRSGGSTYYADSVKGRFTISRDNAKNTVSLQMNSLKPEDTAVYYCAVALARPYEDYDYWGQGTQVTVSS | high polyreactivity
QVQLVESGGGLVQAGGSLRLSCAASGYTFRYYVMGWYRQAPGKERELDAAISQRGGSTYYADSVKGRFTISRDNAKNTVYLQMNSLKPEDTAVYYCAASYSTYASRGYGYWGQGTQVTVSS | high polyreactivity
QVQLVESGGGLVQAGGSLRLSCAASGYTFSDNAIGWYRQAPGKERELVAAITSGVSTYYADSVKGRFTISRDNAKNTVYLQMNSLKPEDTAVYYCAKDVAVYADLYQGAPYGYWGQGTQVTVSS | low polyreactivity
QVQLVESGGGLVQAGGSLRLSCAASGYTFSHYDMGWYRQAPGKERELVAGITWSGGSTYYADSVKGRFTISRDNAKNTVYLQMNSLIPEDTSVYYCAAKYYWYYSYSGIPLFDYWGQGTQVTVSS | low polyreactivity
QVQLVESGGGLVQAGGSLRLSCAASGYTFSNNAMGWYRQAPGKERELVAAISRSTGSTYYADSVKGRFTISRDYAKNTVYLQMNSLKPEDTAVYYCAVYRHGYGYNYWGQGTQVTVSS | high polyreactivity
